Measured values: FireProtDB (doi:10.1006/jmbi.1998.1906)

B1: Lysozyme C, P61626 (parent)
chain: MKALIVLGLVLLSVTVQGKVFERCELARTLKRLGMDGYRGISLANWMCLAKWESGYNTRATNYNAGDRSTDYGIFQINSRYWCNDGKTPGAVNACHLSCSALLQDNIADAVACAKRVVRDPQGIRAWVAWRNRCQNRDVRQYVQGCGV

Variants of: B1
Settings: Homo sapiens; pH 2.55; Thermal; DSC; glycine 0.05 M; reversible: yes; structure 1LZ1; whole UniProt chain shown

Row | Variant | Tm [°C] | unfolding enthalpy (calorimetric) [kcal/mol] | unfolding enthalpy (van 't Hoff) [kcal/mol]
1 | V128A | 46.8 | 76.8 | 78

Same assay, conditions: Homo sapiens; pH 2.7; 49.2 °C; Thermal; DSC; glycine 0.05 M; reversible: yes; structure 1LZ1; whole UniProt chain shown

Row | Variant | ddG of mutation (higher = less stable) [kcal/mol] | heat capacity change of unfolding [kcal/mol/K]
2 | V128A | -0.07 | 1.51
3 | V92A | 0.43 | 1.53
4 | I77V | 0.93 | 1.67
5 | I74V | 1.34 | 1.29
6 | V143A | 1.6 | 1.56
7 | V148A | 1.12 | 1.87

Same assay, conditions: Homo sapiens; pH 2.7; Thermal; DSC; glycine 0.05 M; reversible: yes; structure 1LZ1; whole UniProt chain shown

Row | Variant | Tm [°C] | change of melting temperature, mutant - wild type (higher = more stable) [°C] | heat capacity change of unfolding [kcal/mol/K] | unfolding enthalpy (calorimetric) [kcal/mol]
8 | V128A | 49.5 | 0.3 | 1.51 | 80.9
9 | V92A | 47.3 | -1.9 | 1.53 | 73.7
10 | I77V | 44.8 | -4.4 | 1.67 | 71.3
11 | I74V | 42.9 | -6.3 | 1.29 | 71.8
12 | V143A | 42.2 | -7 | 1.56 | 78
13 | V117A | 44.8 | -4.4 | 1.27 | 67
14 | V148A | 44.4 | -4.8 | 1.87 | 78.2

Same assay, conditions: Homo sapiens; pH 2.87; Thermal; DSC; glycine 0.05 M; reversible: yes; structure 1LZ1; whole UniProt chain shown

Row | Variant | Tm [°C] | unfolding enthalpy (calorimetric) [kcal/mol] | unfolding enthalpy (van 't Hoff) [kcal/mol]
15 | V128A | 52.5 | 85.9 | 87.6
16 | V143A | 45.9 | 72.2 | 76.3

Same assay, conditions: Homo sapiens; pH 3; Thermal; DSC; glycine 0.05 M; reversible: yes; structure 1LZ1; whole UniProt chain shown

Row | Variant | Tm [°C] | unfolding enthalpy (calorimetric) [kcal/mol] | unfolding enthalpy (van 't Hoff) [kcal/mol]
17 | V128A | 55 | 89 | 93.1
18 | I77V | 50.3 | 74.2 | 76.1
19 | I74V | 48.2 | 69.4 | 73

Same assay, conditions: Homo sapiens; pH 3.13; Thermal; DSC; glycine 0.05 M; reversible: yes; structure 1LZ1; whole UniProt chain shown

Row | Variant | Tm [°C] | unfolding enthalpy (calorimetric) [kcal/mol] | unfolding enthalpy (van 't Hoff) [kcal/mol]
20 | V128A | 57.2 | 93.3 | 93.3

Same assay, conditions: Homo sapiens; pH 2.51; Thermal; DSC; glycine 0.05 M; reversible: yes; structure 1LZ1; whole UniProt chain shown

Row | Variant | Tm [°C] | unfolding enthalpy (calorimetric) [kcal/mol] | unfolding enthalpy (van 't Hoff) [kcal/mol]
21 | V92A | 43.9 | 65.6 | 69.9

Same assay, conditions: Homo sapiens; pH 2.69; Thermal; DSC; glycine 0.05 M; reversible: yes; structure 1LZ1; whole UniProt chain shown

Row | Variant | Tm [°C] | unfolding enthalpy (calorimetric) [kcal/mol] | unfolding enthalpy (van 't Hoff) [kcal/mol]
22 | V92A | 47.5 | 71.5 | 75.6
23 | V148A | 43.8 | 69.9 | 73

Same assay, conditions: Homo sapiens; pH 2.85; Thermal; DSC; glycine 0.05 M; reversible: yes; structure 1LZ1; whole UniProt chain shown

Row | Variant | Tm [°C] | unfolding enthalpy (calorimetric) [kcal/mol] | unfolding enthalpy (van 't Hoff) [kcal/mol]
24 | V92A | 50.1 | 74.4 | 80.9
25 | V117A | 48.2 | 67.2 | 70.6

Same assay, conditions: Homo sapiens; pH 3.03; Thermal; DSC; glycine 0.05 M; reversible: yes; structure 1LZ1; whole UniProt chain shown

Row | Variant | Tm [°C] | unfolding enthalpy (calorimetric) [kcal/mol] | unfolding enthalpy (van 't Hoff) [kcal/mol]
26 | V92A | 52.8 | 79.2 | 86.4

Same assay, conditions: Homo sapiens; pH 3.16; Thermal; DSC; glycine 0.05 M; reversible: yes; structure 1LZ1; whole UniProt chain shown

Row | Variant | Tm [°C] | unfolding enthalpy (calorimetric) [kcal/mol] | unfolding enthalpy (van 't Hoff) [kcal/mol]
27 | V92A | 54.8 | 82.5 | 86.4

Same assay, conditions: Homo sapiens; pH 2.68; Thermal; DSC; glycine 0.05 M; reversible: yes; structure 1LZ1; whole UniProt chain shown

Row | Variant | Tm [°C] | unfolding enthalpy (calorimetric) [kcal/mol] | unfolding enthalpy (van 't Hoff) [kcal/mol]
28 | I77V | 44.3 | 62.9 | 67

Same assay, conditions: Homo sapiens; pH 2.81; Thermal; DSC; glycine 0.05 M; reversible: yes; structure 1LZ1; whole UniProt chain shown

Row | Variant | Tm [°C] | change of melting temperature, mutant - wild type (higher = more stable) [°C] | unfolding enthalpy (calorimetric) [kcal/mol] | unfolding enthalpy (van 't Hoff) [kcal/mol]
29 | I77V | 46.9 | -5.1 | 67.5 | 71.1

Same assay, conditions: Homo sapiens; pH 3.1; Thermal; DSC; glycine 0.05 M; reversible: yes; structure 1LZ1; whole UniProt chain shown

Row | Variant | Tm [°C] | unfolding enthalpy (calorimetric) [kcal/mol] | unfolding enthalpy (van 't Hoff) [kcal/mol]
30 | I77V | 52 | 75.4 | 78.7
31 | I74V | 50.5 | 74.4 | 78.2
32 | V117A | 52.6 | 70.6 | 73.7

Same assay, conditions: Homo sapiens; pH 2.8; Thermal; DSC; glycine 0.05 M; reversible: yes; structure 1LZ1; whole UniProt chain shown

Row | Variant | Tm [°C] | unfolding enthalpy (calorimetric) [kcal/mol] | unfolding enthalpy (van 't Hoff) [kcal/mol]
33 | I74V | 45.3 | 66.7 | 71.1

Same assay, conditions: Homo sapiens; pH 2.72; Thermal; DSC; glycine 0.05 M; reversible: yes; structure 1LZ1; whole UniProt chain shown

Row | Variant | Tm [°C] | unfolding enthalpy (calorimetric) [kcal/mol] | unfolding enthalpy (van 't Hoff) [kcal/mol]
34 | V143A | 42.8 | 67.2 | 70.6
35 | V117A | 45.3 | 62.2 | 65.8

Same assay, conditions: Homo sapiens; pH 3.02; Thermal; DSC; glycine 0.05 M; reversible: yes; structure 1LZ1; whole UniProt chain shown

Row | Variant | Tm [°C] | unfolding enthalpy (calorimetric) [kcal/mol] | unfolding enthalpy (van 't Hoff) [kcal/mol]
36 | V143A | 47.9 | 76.3 | 78
37 | V117A | 51 | 68.9 | 72.2

Same assay, conditions: Homo sapiens; pH 3.17; Thermal; DSC; glycine 0.05 M; reversible: yes; structure 1LZ1; whole UniProt chain shown

Row | Variant | Tm [°C] | unfolding enthalpy (calorimetric) [kcal/mol] | unfolding enthalpy (van 't Hoff) [kcal/mol]
38 | V143A | 50.8 | 81.1 | 82.8

Same assay, conditions: Homo sapiens; pH 2.54; Thermal; DSC; glycine 0.05 M; reversible: yes; structure 1LZ1; whole UniProt chain shown

Row | Variant | Tm [°C] | unfolding enthalpy (calorimetric) [kcal/mol] | unfolding enthalpy (van 't Hoff) [kcal/mol]
39 | V117A | 41.4 | 56 | 59.6

Same assay, conditions: Homo sapiens; pH 2.5; Thermal; DSC; glycine 0.05 M; reversible: yes; structure 1LZ1; whole UniProt chain shown

Row | Variant | Tm [°C] | unfolding enthalpy (calorimetric) [kcal/mol] | unfolding enthalpy (van 't Hoff) [kcal/mol]
40 | V148A | 40.4 | 61 | 67.7

Same assay, conditions: Homo sapiens; pH 2.82; Thermal; DSC; glycine 0.05 M; reversible: yes; structure 1LZ1; whole UniProt chain shown

Row | Variant | Tm [°C] | unfolding enthalpy (calorimetric) [kcal/mol] | unfolding enthalpy (van 't Hoff) [kcal/mol]
41 | V148A | 47 | 73 | 79.2

Same assay, conditions: Homo sapiens; pH 2.97; Thermal; DSC; glycine 0.05 M; reversible: yes; structure 1LZ1; whole UniProt chain shown

Row | Variant | Tm [°C] | unfolding enthalpy (calorimetric) [kcal/mol] | unfolding enthalpy (van 't Hoff) [kcal/mol]
42 | V148A | 49.9 | 80.1 | 86.1

Same assay, conditions: Homo sapiens; pH 3.09; Thermal; DSC; glycine 0.05 M; reversible: yes; structure 1LZ1; whole UniProt chain shown

Row | Variant | Tm [°C] | unfolding enthalpy (calorimetric) [kcal/mol] | unfolding enthalpy (van 't Hoff) [kcal/mol]
43 | V148A | 52.5 | 84.2 | 90.2
